Data: patent US20250145724A1
pEC50: −log10 of the molar value.

Key:
[1] = target: Adenosine A2A receptor (human) (human) (UniProt P29274); test: flow cytometry, control antibody, HEK293-A2a cells (A2a Singlets); Parent Singlets median 230
[2] = target: Adenosine A2A receptor (human) (human) (UniProt P29274); test: flow cytometry, control antibody, HEK293-A2a cells (A2a Singlets); Parent Singlets median 230; same picture as FIG. 16O
[3] = target: Adenosine A2A receptor (human) (human) (UniProt P29274); test: flow cytometry titration 0.05-100 nM IgG, MFI; grey curve and grey number taken as HEK293-A2a cells, black (ND) as parent cells; same data as FIG. 17H
[4] = target: Adenosine A2A receptor (human) (human) (UniProt P29274); test: flow cytometry titration 0.05-100 nM IgG, MFI; grey curve and grey number taken as HEK293-A2a cells, black (ND) as parent cells, no legend on the sheet
[5] = target: Adenosine A2A receptor (human) (human) (UniProt P29274); test: cell-based or functional assay

Adenosine A2A receptor (human) (human), sequence (P29274 whole entry): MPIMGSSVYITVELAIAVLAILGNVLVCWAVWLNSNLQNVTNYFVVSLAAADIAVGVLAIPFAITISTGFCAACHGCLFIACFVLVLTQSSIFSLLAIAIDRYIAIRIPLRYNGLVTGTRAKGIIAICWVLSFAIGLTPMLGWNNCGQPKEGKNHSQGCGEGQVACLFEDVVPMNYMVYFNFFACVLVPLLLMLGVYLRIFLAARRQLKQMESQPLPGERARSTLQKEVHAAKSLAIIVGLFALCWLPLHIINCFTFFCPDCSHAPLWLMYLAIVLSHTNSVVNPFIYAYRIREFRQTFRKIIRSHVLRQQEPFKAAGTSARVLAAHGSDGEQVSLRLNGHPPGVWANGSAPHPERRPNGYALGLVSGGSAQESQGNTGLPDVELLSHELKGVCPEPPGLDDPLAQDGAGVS

| Substance | Median : RL1-H [1] | Median : RL1-H [2] | pEC50 [3] | pEC50 [4] | Absolute IC50, A2A cAMP antagonist titration [5] | Absolute IC50, LANCE allosteric cAMP assay (titrated IgG, fixed NECA) [5] [nM] | Absolute IC50, cAMP allosteric A2A Perkin Elmer assay [5] [nM] |
| --- | --- | --- | --- | --- | --- | --- | --- |
| Human Adenosine A2aR monoclonal (MAB9497) (antibody) | 7500 | 7500 | 7.66 | 7.66 | – | – | – |
| R&D control antibody | – | – | – | – | 9.43 | 9.43 | 0.513 |
